# Assay results: publication PMC9352680, “A comprehensive thermodynamic model for RNA binding by the Saccharomyces cerevisiae Pumilio protein PUF4”
# Where a chain is given by its changes, count along the chain named. Numbers in names are those of the source.
# T1: PUF4 RNA-binding domain (Saccharomyces cerevisiae, UniProt P25339 537-888)
# T1 sequence: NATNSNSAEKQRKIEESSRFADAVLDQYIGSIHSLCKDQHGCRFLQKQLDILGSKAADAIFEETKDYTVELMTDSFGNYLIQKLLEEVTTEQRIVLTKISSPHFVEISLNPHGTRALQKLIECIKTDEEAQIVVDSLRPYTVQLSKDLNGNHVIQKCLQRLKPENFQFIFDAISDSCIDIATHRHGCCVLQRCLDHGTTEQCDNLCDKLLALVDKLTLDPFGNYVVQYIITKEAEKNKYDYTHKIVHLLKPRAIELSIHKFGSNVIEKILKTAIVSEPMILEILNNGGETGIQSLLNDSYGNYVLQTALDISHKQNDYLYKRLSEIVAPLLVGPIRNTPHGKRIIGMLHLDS
# B1: Ic_S2_P4E.1_K4.1_C4.1_H4.1_A4.1_[T5A]_[A6T]_[T7C]_F4.1_[T8A]_[A9G]_T4.1 (ssRNA)
# RNA: UUUGAUUAAUAUGAUAUCGUUCUUUCUUGUAAUCAGUUCUUUCUCGAUAUCAUAUUAAUCUUU
# B2: Ic_S2_P4E.1_K4.1_C4.1_H4.1_A4.1_[A6G]_[T7C]_F4.1_[T8G]_[A9G]_T4.1 (ssRNA)
# RNA: B1 RNA with A32U, U33G, A35G
# B3: Ic_S2_P4E.1_K4.1_C4.1_H4.1_A4.1_[T5A]_[T7A]_F4.1_[A9G]_T4.1 (ssRNA)
# RNA: B1 RNA with U33A, C34A, A35U
# B4: Ic_S2_P4E.1_K4.1_C4.1_H4.1_A4.1_[T5A]_[A6T]_[T7G]_F4.1_[T8C]_[A9T]_T4.1 (ssRNA)
# RNA: B1 RNA with C34G, A35C, G36U
# B5: Ic_S2_P4E.1_K4.1_C4.1_H4.1_A4.1_[T5A]_[A6T]_[T7C]_F4.1_[T8G]_[A9T]_T4.1 (ssRNA)
# RNA: B1 RNA with A35G, G36U
# B6: Ic_S2_P4E.1_K4.1_C4.1_H4.1_A4.1_[T5A]_[A6T]_F4.1_[T8C]_[A9G]_T4.1 (ssRNA)
# RNA: B1 RNA with C34U, A35C
# B7: Ic_S2_P4E.1_K4.1_C4.1_H4.1_A4.1_[T5A]_[A6T]_F4.1_[A9T]_T4.1 (ssRNA)
# RNA: B1 RNA with C34U, A35U, G36U
# B8: Ic_S2_P4E.1_K4.1_C4.1_H4.1_A4.1_[T5A]_[A6T]_[T7A]_F4.1_[T8G]_[A9C]_T4.1 (ssRNA)
# RNA: B1 RNA with C34A, A35G, G36C
# B9: Ic_S2_P4E.1_K4.1_C4.1_H4.1_A4.1_[T5A]_[A6T]_[T7A]_F4.1_[T8C]_T4.1 (ssRNA)
# RNA: B1 RNA with C34A, A35C, G36A
# B10: Ic_S2_P4E.1_K4.1_C4.1_H4.1_A4.1_[T5A]_[A6T]_[T7C]_F4.1_[T8G]_[A9G]_T4.1 (ssRNA)
# RNA: B1 RNA with A35G
# B11: Ic_S2_P4E.1_K4.1_C4.1_H4.1_A4.1_[T5A]_[A6T]_F4.1_[T8C]_[A9C]_T4.1 (ssRNA)
# RNA: B1 RNA with C34U, A35C, G36C
# B12: Ic_S2_P4E.1_K4.1_C4.1_H4.1_A4.1_[T5A]_[T7A]_F4.1_[T8C]_[A9C]_T4.1 (ssRNA)
# RNA: B1 RNA with U33A, C34A, A35C, G36C
# B13: Ic_S2_P4E.1_K4.1_C4.1_H4.1_A4.1_[A6G]_[T7G]_F4.1_[T8C]_[A9T]_T4.1 (ssRNA)
# RNA: B1 RNA with A32U, U33G, C34G, A35C, G36U
# B14: Ic_S2_P4E.1_K4.1_C4.1_H4.1_A4.1_[T5A]_[T7C]_F4.1_[T8A]_T4.1 (ssRNA)
# RNA: B1 RNA with U33A, G36A
# B15: Ic_S2_P4E.1_K4.1_C4.1_H4.1_A4.1_[T5A]_[A6T]_F4.1_[T8G]_[A9T]_T4.1 (ssRNA)
# RNA: B1 RNA with C34U, A35G, G36U
# B16: Ic_S2_P4E.1_K4.1_C4.1_H4.1_A4.1_[T5A]_F4.1_[T8A]_[A9C]_T4.1 (ssRNA)
# RNA: B1 RNA with U33A, C34U, G36C
# B17: Ic_S2_P4E.1_K4.1_C4.1_H4.1_A4.1_[A6G]_[T7C]_F4.1_[T8C]_[A9T]_T4.1 (ssRNA)
# RNA: B1 RNA with A32U, U33G, A35C, G36U
# B18: Ic_S2_P4E.1_K4.1_C4.1_H4.1_A4.1_[A6G]_[T7G]_F4.1_[A9T]_T4.1 (ssRNA)
# RNA: B1 RNA with A32U, U33G, C34G, A35U, G36U
# B19: Ic_S2_P4E.1_K4.1_C4.1_H4.1_A4.1_[T5A]_F4.1_[T8G]_[A9T]_T4.1 (ssRNA)
# RNA: B1 RNA with U33A, C34U, A35G, G36U
# B20: Ic_S2_P4E.1_K4.1_C4.1_H4.1_A4.1_[T5A]_[A6T]_[T7G]_F4.1_[T8C]_[A9C]_T4.1 (ssRNA)
# RNA: B1 RNA with C34G, A35C, G36C
# B21: Ic_S2_P4E.1_K4.1_C4.1_H4.1_A4.1_[T5A]_[T7C]_F4.1_[T8A]_[A9G]_T4.1 (ssRNA)
# RNA: B1 RNA with U33A
# B22: Ic_S2_P4E.1_K4.1_C4.1_H4.1_A4.1_[T5A]_[A6T]_F4.1_[T8C]_[A9T]_T4.1 (ssRNA)
# RNA: B1 RNA with C34U, A35C, G36U
# B23: Ic_S2_P4E.1_K4.1_C4.1_H4.1_A4.1_[T5A]_[A6T]_[T7G]_F4.1_T4.1 (ssRNA)
# RNA: B1 RNA with C34G, A35U, G36A
# Molecular target: T1, PUF4 RNA-binding domain
# Assay: Mg; RNA-MaP; 20 mM Na-HEPES pH 7.4, 30 mM KOAc, 0.75 mM MgCl2, 0.1% Tween-20, 5% glycerol, 0.1 mg/mL BSA, 2 mM DTT; 25 C; 0.0125-409.6 nM protein
# Conditions: tags: N-His6-TEV cleaved; C-SNAP kept, Cy3B-labelled; label: tethered on chip by stalled RNA polymerase
row,Binder,Kd [nM]
1,B1,1430
2,B2,1310
3,B3,21
4,B4,518
5,B5,335
6,B6,649
7,B7,22.4
8,B8,1120
9,B9,558
10,B10,1800
11,B11,315
12,B12,385
13,B13,619
14,B14,57.8
15,B15,117
16,B16,23.4
17,B17,404
18,B18,224
19,B19,164
20,B20,1040
21,B21,1140
22,B22,48
23,B23,8.85
24,UCUCUUCGUAUAUUAUCUCUU (ssRNA) [Ia_S1_P4E.1_K4.1_C4.1_H4.1_[T1C]_A4.1_F4.1_T4.1],20.9
25,UCUCUUUGUAUAUGGUCUCUU (ssRNA) [Ib_S1_P4E.1_K4.1_C4.1_H4.1_A4.1_F4.1_[T8G]_[A9G]_T4.1],47.2
26,UCUCUUUGUAAGUAUCUCUU (ssRNA) [Ic_S1_P3E.1_K3.1_C3.1_H3.1_A3.1_[T5A]_[A6G]_F3.1_T3.1],1780
27,UCUCUUUGUAAUUAUCUCUU (ssRNA) [Ib_S1_P3E.1_K3.1_C3.1_H3.1_A3.1_[T5A]_[A6T]_F3.1_T3.1],155
28,UCUCUUUGUAUAUGCUCUCUU (ssRNA) [Ib_S1_P4E.1_K4.1_C4.1_H4.1_A4.1_F4.1_[T8G]_[A9C]_T4.1],26.8
29,UCUCUUUGUAACUAUCUCUU (ssRNA) [Ic_S1_P3E.1_K3.1_C3.1_H3.1_A3.1_[T5A]_[A6C]_F3.1_T3.1],271
